Reference: patent US6740496B1, “Determination of biologically active forms of proteolytic enzymes” (Synapse B.V., priority 1999, dated 2004)

Assays:
Type in all cases: biochemical
human thrombin [1] = molecular target: T1, human thrombin (Homo sapiens, UniProt P00734); experiment: Hydrolysis of OA-AR-AMC by free thrombin (AMC fluorescence); conditions: 5.5 μM OA-AR-AMC, 85 nM human thrombin, 25° C., pH 8.0, Michaelis-Menten fit
T1 construct: The formation of thrombin in clotting blood or plasma arises from prothrombin by an enzymatic controlled reaction
Method: (§1) The assay was carried out at 25° C. in 96 well Microfluor W “U” bottomed micro titre plates (Dynex, London, UK) in 10 mM HEPES, 5 mM CaCl2, 0.02% sodium azide, pH 8.0). In case of -∘- the vessel contained 5.5 μM OA-AR-AMC (Ala-Arg-AMC coupled to ovalbumin) and 85 nM human thrombin and in case of -∇-5.5 μM OA-AR-AMC and 65 μM human α2M-IIa. The black symbols (-●- and -▾-) were obtained by fitting assuming that the substrate is hydrolysed by thrombin according to Michaelis-Menten kinetics. […] For hydrolysis by α2M-IIa the already derived S0 and Km were found and kcat=0.008 s^−1.

human α2M-IIa [2] = molecular target: T2, human α2M-IIa (Homo sapiens, UniProt P00734); experiment: Hydrolysis of OA-AR-AMC by thrombin inactivated by α2M (AMC fluorescence)
T2 construct: The formation of thrombin in clotting blood or plasma arises from prothrombin by an enzymatic controlled reaction
Method: as §1

human α2M-IIa [3] = molecular target: T2, human α2M-IIa; experiment: Amidolytic activity of human α2M-IIa towards OA-S2288 (pNA release, OD 405 nm)
Method: (§2) The amidolytic activity of human thrombin and human α2M-IIa towards OA-S2288 was measured. The reaction mixtures contained 22 μM OA-S2288, 50 nM thrombin or α2M-IIa and 175 mM NaCl, 50 mM Tris-HCl, 2 mg/ml ovalbumin (pH 7.9).
(§3) In FIG. 2 the amount of free p-nitroanilide (pNA) formed, expressed as milli optical density at 405 nm, is plotted against the time. The reaction temperature was 37° C. The grey curves are the measured data, whereas the black line is obtained by fitting, assuming that product formation occurs according to Michaelis-Menten kinetics.
(§4) Product formation in time can be described as: E.kcat. St/(Km+St), in which St is the substrate concentration in time (i.e. the substrate concentration originally present (S0) minus the formed product or split substrate, and E is the enzyme that splits the substrate, either thrombin or α2M-IIa.

human thrombin [4] = molecular target: T1, human thrombin; experiment: Amidolytic activity of human thrombin towards OA-S2288 (pNA release, OD 405 nm); conditions: Michaelis-Menten fit
Method: as §2, §3, §4

| Substance | Km (human thrombin [1]) [µM] | kcat (human thrombin [1]) [s⁻¹] | kcat (human α2M-IIa [2]; 5.5 μM OA-AR-AMC, 65 μM human α2M-IIa, 25° C., pH 8.0, Michaelis-Menten fit) [s⁻¹] | Km (human α2M-IIa [2]; hydrolysis by α2M-IIa, the already derived S0 and Km) [µM] | hydrolysis by thrombin entrapped in α2M (in words) (human α2M-IIa [2]; ovalbumin coupled to Ala-Arg-AMC) | kcat (human α2M-IIa [3]; E is α2M-IIa, 22 μM OA-S2288, 50 nM enzyme, 37° C., Michaelis-Menten fit) [s⁻¹] | hydrolysis by α2M-IIa (in words) (human α2M-IIa [3]; ovalbumin coupled to S2288) | Km (human thrombin [4]; 22 μM OA-S2288, 50 nM thrombin, pH 7.9, 37° C.) [µM] | kcat (human thrombin [4]; E is thrombin, 22 μM OA-S2288, 50 nM enzyme, 37° C.) [s⁻¹] |
| --- | --- | --- | --- | --- | --- | --- | --- | --- | --- |
| ovalbumin coupled to H-alanyl-L-arginine-7-amido-4-methyl-coumarin [OA-AR-AMC] | 1.2 | 3.3 | 0.008 | 1.2 | will not be split anymore by thrombin entrapped in the cavity of α2M |  |  |  |  |
| ovalbumin coupled to H-D-isoleucyl-L-prolyl-L-arginine-p-nitroanilide.2HCl [OA-S2288] |  |  |  |  |  | 0.002 | loses its ability to be hydrolysed by α2M-IIa, but not by thrombin | 1.47 | 0.31 |
